Measured values published in the Immune Epitope Database (IEDB).
pIC50, pKd: −log10 of the molar value.

Tests used:
HLA-B*07:02 [1] = assay: IEDB peptide-MHC binding, purified MHC/competitive/radioactivity; filed as Kd, often an IC50 or EC50 that approximates it; ≥ and ≤ were set here for values at or beyond the usual limits of such assays
HLA-B*35:01 = assay: as above
HLA-B*51:01 = assay: as above
HLA-B*53:01 = assay: as above
HLA-B*54:01 = assay: as above
HLA-A*03:01 [2] = assay: IEDB peptide-MHC binding, purified MHC/competitive/fluorescence; filed as Kd, often an IC50 or EC50 that approximates it; ≥ and ≤ were set here for values at or beyond the usual limits of such assays
HLA-A*01:01 = assay: IEDB peptide-MHC binding, purified MHC/direct/fluorescence; filed as Kd, often an IC50 or EC50 that approximates it; ≥ and ≤ were set here for values at or beyond the usual limits of such assays
HLA-A*02:01 = assay: as above
HLA-A*03:01 [3] = assay: as above
HLA-A*11:01 = assay: as above
HLA-A*26:01 = assay: as above
HLA-A*31:01 = assay: as above
HLA-A*69:01 = assay: as above
HLA-B*07:02 [4] = assay: as above
HLA-B*08:01 = assay: as above
HLA-B*15:01 = assay: as above
HLA-B*27:05 = assay: as above
HLA-B*40:01 = assay: as above
HLA-B*44:02 = assay: as above
HLA-B*58:01 = assay: as above
HLA-B*48:01 = assay: as above; conditions: source organism: West Nile virus
HLA-A*24:02 = assay: IEDB peptide-MHC binding, purified MHC/competitive/fluorescence; ≥ and ≤ were set here for values at or beyond the usual limits of such assays; conditions: source organism: Vaccinia virus
HLA-A*24:03 = assay: IEDB peptide-MHC binding, purified MHC/direct/fluorescence; filed as Kd, often an IC50 or EC50 that approximates it; ≥ and ≤ were set here for values at or beyond the usual limits of such assays; conditions: source organism: Vibrio cholerae
[5] = source organism: Mammarenavirus choriomeningitidis
[6] = source organism: Giardia lamblia ATCC 50803
[7] = source organism: Vaccinia virus WR
[8] = source organism: Vibrio cholerae
[9] = source organism: Coxiella burnetii
[10] = source organism: Mammarenavirus lassaense
[11] = source organism: Triticum aestivum
[12] = source organism: Lymphocytic choriomeningitis virus (strain WE)

FATCGLFAL
pKd (HLA-B*07:02 [1]; [5]): 5.06
pKd (HLA-B*35:01; [5]): 6.13
pKd (HLA-B*51:01; [5]): ≤ 4.57
pKd (HLA-B*53:01; [5]): 5.06
pKd (HLA-B*54:01; [5]): 5.20

KISGSFSPH
pKd (HLA-A*03:01 [2]; source organism: Cryptosporidium parvum Iowa II): 7.43

KLADMSIYC
pKd (HLA-A*01:01; [6]): ≤ 4.70
pKd (HLA-A*02:01; [6]): 7.37
pKd (HLA-A*03:01 [3]; [6]): 5.38
pKd (HLA-A*11:01; [6]): ≤ 4.70
pKd (HLA-A*26:01; [6]): ≤ 4.70
pKd (HLA-A*31:01; [6]): ≤ 4.70
pKd (HLA-A*69:01; [6]): ≤ 4.70
pKd (HLA-B*07:02 [4]; [6]): ≤ 4.70
pKd (HLA-B*08:01; [6]): ≤ 4.70
pKd (HLA-B*15:01; [6]): 5.40
pKd (HLA-B*27:05; [6]): ≤ 4.70
pKd (HLA-B*40:01; [6]): ≤ 4.70
pKd (HLA-B*44:02; [6]): ≤ 4.70
pKd (HLA-B*58:01; [6]): ≤ 4.70

RLSVKTFVK
pKd (HLA-A*03:01 [2]; source organism: Francisella tularensis subsp. tularensis FSC198): 7.60

NPTSETMYL
pKd (HLA-B*07:02 [1]; [7]): 6.94
pKd (HLA-B*35:01; [7]): 7.23
pKd (HLA-B*51:01; [7]): ≤ 4.22
pKd (HLA-B*53:01; [7]): 8.38
pKd (HLA-B*54:01; [7]): ≤ 4.43

KPKFCLIDGM
pKd (HLA-B*07:02 [1]; [7]): 7.10
pKd (HLA-B*35:01; [7]): ≤ 4.65
pKd (HLA-B*51:01; [7]): ≤ 4.16
pKd (HLA-B*53:01; [7]): 4.92
pKd (HLA-B*54:01; [7]): 4.84

LRWLVERRF
pKd (HLA-B*48:01): ≤ 4.70

YPFYVSPTEM
pKd (HLA-B*07:02 [1]; [7]): 5.69
pKd (HLA-B*35:01; [7]): 8.20
pKd (HLA-B*51:01; [7]): 5.81
pKd (HLA-B*53:01; [7]): 6.35
pKd (HLA-B*54:01; [7]): 7.09

SYRNKPSIA
pIC50 (HLA-A*24:02): 4.36

RYDYANLCQ
pKd (HLA-A*01:01; [8]): ≤ 4.70
pKd (HLA-A*02:01; [8]): ≤ 4.70
pKd (HLA-A*03:01 [3]; [8]): ≤ 4.70
pKd (HLA-A*11:01; [8]): ≤ 4.70
pKd (HLA-A*24:03): ≤ 4.70
pKd (HLA-A*26:01; [8]): ≤ 4.70
pKd (HLA-A*31:01; [8]): ≤ 4.70
pKd (HLA-A*69:01; [8]): ≤ 4.70
pKd (HLA-B*07:02 [4]; [8]): ≤ 4.70
pKd (HLA-B*08:01; [8]): ≤ 4.70
pKd (HLA-B*15:01; [8]): ≤ 4.70
pKd (HLA-B*27:05; [8]): ≤ 4.70
pKd (HLA-B*40:01; [8]): ≤ 4.70
pKd (HLA-B*44:02; [8]): ≤ 4.70
pKd (HLA-B*58:01; [8]): ≤ 4.70

QLAFFVAGH
pKd (HLA-A*03:01 [2]; source organism: Yersinia pestis Antiqua): 6.70

PEIRRWIIF
pKd (HLA-A*01:01; [9]): ≤ 4.70
pKd (HLA-A*02:01; [9]): ≤ 4.70
pKd (HLA-A*03:01 [3]; [9]): ≤ 4.70
pKd (HLA-A*11:01; [9]): ≤ 4.70
pKd (HLA-A*26:01; [9]): ≤ 4.70
pKd (HLA-A*31:01; [9]): ≤ 4.70
pKd (HLA-A*69:01; [9]): ≤ 4.70
pKd (HLA-B*07:02 [4]; [9]): ≤ 4.70
pKd (HLA-B*08:01; [9]): ≤ 4.70
pKd (HLA-B*15:01; [9]): ≤ 4.70
pKd (HLA-B*27:05; [9]): ≤ 4.70
pKd (HLA-B*40:01; [9]): 5.25
pKd (HLA-B*44:02; [9]): ≤ 4.70
pKd (HLA-B*58:01; [9]): ≤ 4.70

MVAWRVTMH
pKd (HLA-A*03:01 [2]; source organism: Toxoplasma gondii): 7.32

KYNTPCPNC
pIC50 (HLA-A*24:02): 4.45

MPDCGMSVLA
pKd (HLA-B*07:02 [1]; [10]): 5.41
pKd (HLA-B*35:01; [10]): 7.04
pKd (HLA-B*51:01; [10]): 5.04
pKd (HLA-B*53:01; [10]): 6.35
pKd (HLA-B*54:01; [10]): 6.98

QPSSQVSF
pKd (HLA-B*07:02 [1]; [11]): ≤ 4.58
pKd (HLA-B*35:01; [11]): ≤ 4.62
pKd (HLA-B*51:01; [11]): 5.53
pKd (HLA-B*53:01; [11]): ≤ 4.42
pKd (HLA-B*54:01; [11]): ≤ 4.06

EPVESCPLM
pKd (HLA-B*07:02 [1]; [12]): 5.29
pKd (HLA-B*35:01; [12]): 7.57
pKd (HLA-B*51:01; [12]): 5.72
pKd (HLA-B*53:01; [12]): 6.75
pKd (HLA-B*54:01; [12]): ≤ 4.11
